# B1: E442Q Spastin (enzyme)
# chain: ESGAVPKRKDPLTHTSNSLPRSKTVMKTGSAGLSGHHRAPSYSGLSMVSGVKQGSGPAPTTHKGTPKTNRTNKPSTPTTATRKKKDLKNFRNVDSNLANLIMNEIVDNGTAVKFDDIAGQDLAKQALQEIVILPSLRPELFTGLRAPARGLLLFGPPGNGKTMLAKAVAAESNATFFNISAASLTSKYVGEGEKLVRALFAVARELQPSIIFIDQVDSLLCERREGEHDASRRLKTEFLIEFDGVQSAGDDRVLVMGATNRPQELDEAVLRRFIKRVYVSLPNEETRLLLLKNLLCKQGSPLTQKELAQLARMTDGYSGSDLTALAKDAALGPIRELKPEQVKNMSASEMRNIRLSDFTESLKKIKRSVSPQTLEAYIRWNKDFGDTTV
# Target: GST–tubulin tails (ending in either Tyr or Glu)
# Test: pull-down
binder,measurement,value
B1,percent of the Spastin bound,25 to 33%

# — publication PMC2064084
